Assay results from patent US20120141537A1.

Legend:
Test in all cases: cell-based or functional assay
[1] = target: H-2K^b wild type complexed with Q7 peptide SIINFEQL (SEQ ID NO:2) (mouse) (UniProt P01901)
[2] = target: K^bm3 complexed with Q7 peptide (SEQ ID NO:2) (mouse) (UniProt P01901)
[3] = target: H-2K^b wild type complexed with SIINFEKL (SEQ ID NO:1) (mouse; chicken) (UniProt P01901)

Day 14 Diabetes in B6-RIP-OVA mice given naive OT-1 spleen cells and peptide-pulsed RMAS cells [1]: 0 of 4 mice
Day 21 Diabetes after day 15 challenge with TMEV-SIINFEKL [1]: 0 of 4 mice
Day 14 Diabetes in B6-RIP-OVA mice given naive OT-1 spleen cells and peptide-pulsed RMAS cells [2]: 0 of 4 mice
Day 21 Diabetes after day 15 challenge with TMEV-SIINFEKL [2]: 3 of 4 mice
diabetes (>300 mg/dL blood glucose) after TMEV-L/OVA challenge on day 15 (FIG. 4) [2]: 65 % of mice
Day 14 Diabetes in B6-RIP-OVA mice given naive OT-1 spleen cells and peptide-pulsed RMAS cells [3]: 0 of 2 mice
Day 21 Diabetes after day 15 challenge with TMEV-SIINFEKL [3]: 2 of 2 mice
Substance: OT-1 T cell receptor (TCR)
